Legend:
[1] = target: MAB-BA-231细胞表面人PD-L1 (human) (UniProt Q9NZQ7); test: FACS on cells carrying human PD-L1
人PD-L1重组蛋白 (human) = 人PD-L1重组蛋白 (human) (UniProt Q9NZQ7); test: Biacore SPR, AHC capture of antibody, PD-L1 as analyte 0.78125-12.5 nM
B7H4重组蛋白 = target: T1, B7H4重组蛋白 (UniProt Q7Z7D3 29-258, limits assumed); test: ELISA on recombinant proteins
T1 sequence (looked up): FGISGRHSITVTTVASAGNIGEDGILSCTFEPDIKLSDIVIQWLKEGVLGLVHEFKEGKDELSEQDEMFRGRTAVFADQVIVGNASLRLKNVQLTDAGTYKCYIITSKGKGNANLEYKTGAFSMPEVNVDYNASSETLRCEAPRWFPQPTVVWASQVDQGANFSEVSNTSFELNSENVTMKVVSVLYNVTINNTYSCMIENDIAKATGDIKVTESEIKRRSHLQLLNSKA

CTLA4重组蛋白 = target: T2, CTLA4重组蛋白 (UniProt P16410 36-161, limits assumed); test: ELISA on recombinant proteins
T2 sequence (looked up): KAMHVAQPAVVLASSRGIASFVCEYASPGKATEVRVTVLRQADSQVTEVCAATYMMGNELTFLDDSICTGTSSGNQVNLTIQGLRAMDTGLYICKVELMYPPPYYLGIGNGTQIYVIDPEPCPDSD

CD28重组蛋白 = CD28重组蛋白 (UniProt P10747 19-152, limits assumed); test: ELISA on recombinant proteins
Chain of CD28重组蛋白 (P10747 19-152 limits assumed): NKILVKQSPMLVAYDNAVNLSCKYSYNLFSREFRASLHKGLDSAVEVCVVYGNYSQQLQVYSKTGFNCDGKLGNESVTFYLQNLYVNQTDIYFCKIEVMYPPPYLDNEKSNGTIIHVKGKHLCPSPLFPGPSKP

B7H3重组蛋白 = target: T3, B7H3重组蛋白 (UniProt Q5ZPR3 29-461, limits assumed); test: ELISA on recombinant proteins
T3 sequence (looked up): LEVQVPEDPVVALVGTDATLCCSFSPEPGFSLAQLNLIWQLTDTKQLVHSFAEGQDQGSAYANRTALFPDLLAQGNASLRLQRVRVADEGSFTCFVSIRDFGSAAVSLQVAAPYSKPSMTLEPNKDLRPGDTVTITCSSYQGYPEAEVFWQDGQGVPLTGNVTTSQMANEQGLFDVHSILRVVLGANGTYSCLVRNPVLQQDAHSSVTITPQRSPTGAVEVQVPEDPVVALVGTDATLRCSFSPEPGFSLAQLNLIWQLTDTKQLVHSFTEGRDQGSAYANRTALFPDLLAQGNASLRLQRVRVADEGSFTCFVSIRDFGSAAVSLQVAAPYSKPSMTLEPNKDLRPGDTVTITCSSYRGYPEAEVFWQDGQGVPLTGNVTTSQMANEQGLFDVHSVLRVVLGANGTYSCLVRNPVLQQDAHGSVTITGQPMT

ICOS重组蛋白 = target: T4, ICOS重组蛋白 (UniProt Q9Y6W8 21-140, limits assumed); test: ELISA on recombinant proteins
T4 sequence (looked up): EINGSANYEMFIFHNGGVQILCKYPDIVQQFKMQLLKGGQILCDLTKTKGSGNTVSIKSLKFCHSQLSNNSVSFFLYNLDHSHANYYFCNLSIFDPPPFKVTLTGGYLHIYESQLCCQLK

PD-1重组蛋白 = target: T5, PD-1重组蛋白 (UniProt Q15116 25-167, limits assumed); test: ELISA on recombinant proteins
T5 construct: also called 受体PD-1
T5 sequence (Q15116 25-167 limits assumed): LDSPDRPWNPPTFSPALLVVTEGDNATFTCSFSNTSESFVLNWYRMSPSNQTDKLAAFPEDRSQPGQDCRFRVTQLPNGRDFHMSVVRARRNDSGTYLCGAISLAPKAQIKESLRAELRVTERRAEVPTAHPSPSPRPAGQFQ

人PD-L1重组蛋白 [2] = target: T6, 人PD-L1重组蛋白 (human, UniProt Q9NZQ7 19-238); test: Biacore SPR, AHC capture of antibody, PD-L1 as analyte 0.78125-12.5 nM
T6 construct: also called 重组人PD-L1; 液相中游离PD-L1
T6 sequence (Q9NZQ7 19-238 limits assumed): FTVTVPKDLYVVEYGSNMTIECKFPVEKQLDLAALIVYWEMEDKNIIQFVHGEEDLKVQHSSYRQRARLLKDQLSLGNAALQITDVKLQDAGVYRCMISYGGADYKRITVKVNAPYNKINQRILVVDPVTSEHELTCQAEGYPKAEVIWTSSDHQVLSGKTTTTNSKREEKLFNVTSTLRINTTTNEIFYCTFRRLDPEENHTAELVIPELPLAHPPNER

MAB-BA-231细胞表面人PD-L1 = target: T7, MAB-BA-231细胞表面人PD-L1 (human, UniProt Q9NZQ7 19-290); test: FACS on MAB-BA-231 cells carrying human PD-L1
T7 construct: whole, on cells; also called 人PD-L1高表达细胞株(MBA-MA-231)
T7 sequence (Q9NZQ7 19-290): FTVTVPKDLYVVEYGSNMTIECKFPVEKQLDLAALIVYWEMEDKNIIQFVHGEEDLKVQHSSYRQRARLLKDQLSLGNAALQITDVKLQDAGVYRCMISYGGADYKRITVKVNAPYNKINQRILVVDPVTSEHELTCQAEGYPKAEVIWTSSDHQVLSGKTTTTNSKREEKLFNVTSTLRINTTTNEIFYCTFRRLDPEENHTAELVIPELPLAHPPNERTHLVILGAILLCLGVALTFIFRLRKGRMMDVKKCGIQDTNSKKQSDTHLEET

人PD-L1重组蛋白 [3] = target: T6, 人PD-L1重组蛋白; test: ELISA, inhibition of recombinant human PD-L1 binding to PD-1
His标签人PD-L1抗原 (human) = His标签人PD-L1抗原 (human) (UniProt Q9NZQ7); test: ELISA, His-tagged human PD-L1 coated at 2.0 μg/mL; ratio = EC50 of chimeric antibody C1 (chC1) / EC50 of humanised antibody x 100%
生物素化的PD-L1抗原 = 生物素化的PD-L1抗原 (UniProt Q9NZQ7); test: competition ELISA, biotinylated PD-L1 on streptavidin, competitor PD-1 mFc 2.0 μg/mL; ratio = IC50 of chimeric antibody / IC50 of humanised antibody x 100%

对照抗体KN035 (Envafolimab) (Fc fusion)
EC50 [1]: 8.8 ng/mL | Ka (人PD-L1重组蛋白 (human)): 2.47e+09 M⁻¹ | Kd (人PD-L1重组蛋白 (human)): 0.405 nM

B1: 单域嵌合抗体(VHH-hFc)chC1 (Fc fusion)
heavy: QVQLQESGGGSVQTGGSLRLSCAASGAAPCMAWFRQAPGKEREGVAASVRGGLSPYYADSVKGRFTISHDIPKNTMYLQMNSLQPDDTALYYCAARATFYRCEGDASSYTYWGQGTQVTVSS
notes: VHH of C1 cloned upstream of the human IgG1 Fc gene and expressed in 293F cells; also called 嵌合抗体chC1; 嵌合抗体C1; not shown: Fc segment of the human IgG1 heavy chain constant region
binding result (B7H4重组蛋白): no binding | binding result (CTLA4重组蛋白): no binding | binding result (CD28重组蛋白): no binding | binding result (B7H3重组蛋白): no binding | binding result (ICOS重组蛋白): no binding | binding result (PD-1重组蛋白): no binding | Ka (人PD-L1重组蛋白 [2]): 3.16e+09 M⁻¹ | Kd (人PD-L1重组蛋白 [2]): 0.317 nM | koff (人PD-L1重组蛋白 [2]): 0.000462 s⁻¹ | kon (人PD-L1重组蛋白 [2]): 1.46e+06 M⁻¹ s⁻¹ | EC50 (MAB-BA-231细胞表面人PD-L1): 8.1 ng/mL | IC50 (人PD-L1重组蛋白 [3]): 590 ng/mL

B2: 人源化抗PD-L1单域抗体C1-hu1 (Fc fusion, not shown: a dimerising Fc or GST)
heavy: EVQLLESGGGLVQPGGSLRLSCAASGAAPCMAWFRQAPGKGLEGVSASVRGGLSPYYADVKGRFTISHDIPKNTMYLQMNSLRAEDTAVYYCAARATFYRCEGDASSYTYWGQGTLVTVSS
相对结合活性，% (His标签人PD-L1抗原 (human)): 45.5% | 相对竞争抑制活性，% (生物素化的PD-L1抗原): 53.4%

B3: 人源化抗PD-L1单域抗体C1-hu11 (Fc fusion, not shown: a dimerising Fc or GST)
heavy: EVQLVESGGGLVQPGGSLRLSCAASGAAPCMAWFRQAPGKGREGVAASVRGGLSPYYADVKGRFTISHDIPKNTMYLQMNSLRAEDTAVYYCAARATFYRCEGDASSYTYWGQGTLVTVSS
相对结合活性，% (His标签人PD-L1抗原 (human)): 81.3% | 相对竞争抑制活性，% (生物素化的PD-L1抗原): 89.1%

B4: 人源化抗PD-L1单域抗体C1-hu2 (Fc fusion, not shown: a dimerising Fc or GST)
heavy: EVQLLESGGGLVQPGGSLRLSCAASGAAPCMAWFRQAPGKGLEGVSASVRGGLSPYYADVKGRFTISHDIPKNTLYLQMNSLRAEDTAVYYCAARATFYRCEGDASSYTYWGQGTLVTVSS
相对结合活性，% (His标签人PD-L1抗原 (human)): 56.5% | 相对竞争抑制活性，% (生物素化的PD-L1抗原): 73.3%

B5: 人源化抗PD-L1单域抗体C1-hu5 (Fc fusion, not shown: a dimerising Fc or GST)
heavy: EVQLVESGGGLVQPGGSLRLSCAASGAAPCMAWFRQAPGKGLEGVSASVRGGLSPYYADVKGRFTISHDIPKNTMYLQMNSLRAEDTAVYYCAARATFYRCEGDASSYTYWGQGTLVTVSS
相对结合活性，% (His标签人PD-L1抗原 (human)): 62.5% | 相对竞争抑制活性，% (生物素化的PD-L1抗原): 61.7%

B6: 人源化抗PD-L1单域抗体C1-hu16 (Fc fusion, not shown: a dimerising Fc or GST)
heavy: EVQLVESGGGLVQPGGSLRLSCAASGAAPCMAWFRQAPGKEREGVAASVRGGLSPYYADVKGRFTISHDIPKNTMYLQMNSLRAEDTAVYYCAARATFYRCEGDASSYTYWGQGTLVTVSS
相对结合活性，% (His标签人PD-L1抗原 (human)): 76.6% | 相对竞争抑制活性，% (生物素化的PD-L1抗原): 107%

B7: 人源化抗PD-L1单域抗体C1-hu15 (Fc fusion, not shown: a dimerising Fc or GST)
heavy: EVQLVESGGGLVQPGGSLRLSCAASGAAPCMAWFRQAPGKEREGVAASVRGGLSPYYADVKGRFTISHDNSKNTMYLQMNSLRAEDTAVYYCAARATFYRCEGDASSYTYWGQGTLVTVSS
相对竞争抑制活性，% (生物素化的PD-L1抗原): 68.1%
